Publication PMC12622831

Columns and labels:
[1] = target: Dengue virus serotype 2 (ET300 strain) non-structural protein 1, C-terminally His-tagged, purified (Dengue virus serotype 2, strain ET300); experiment: SEC; purified His-tagged NS1, 0.5 mL on Superdex 200 increase 10/300 GL in PBS; fractions analysed by NS1 ELISA
[2] = target: Dengue virus serotype 2 (ET300 strain) non-structural protein 1, untagged recombinant, expressed in suspension HEK293 cells (Dengue virus serotype 2, strain ET300); experiment: SEC; concentrated (about 10-fold, 520 μg/mL) NS1 expression medium, 0.5 mL on Superdex 200 increase 10/300 GL in PBS at 0.75 mL per min; NS1 in 0.25 mL fractions by ELISA and immunoblot

Row | Substance | stoichiometry N [1] | stoichiometry N [2]
1 | Dengue virus serotype 2 (ET300 strain) non-structural protein 1, C-terminally His-tagged, purified (natural protein) | 6 | 
2 | Dengue virus serotype 2 (ET300 strain) non-structural protein 1, untagged recombinant, expressed in suspension HEK293 cells (natural protein) |  | 6
